Here are results for two molecules from patent publication US20250228895A1, “COMPOUNDS TO INHIBIT YTHDF2, T HELPER CELLS LACKING EXPRESSION OF YTHDF2, AND METHODS TO TREAT CANCER” (City of Hope, priority 2024, published 2025).

One data set addresses T1, CX3CR1 (Mus musculus, UniProt Q9Z0D9).
T1 construct: BMDMs in the insert were pretreated overnight with 10 μM AZD8797; endogenous in cells; host or cells: primary bone-marrow-derived macrophages (BMDMs) from C57BL/6 mice
T1 sequence (Q9Z0D9 1-354): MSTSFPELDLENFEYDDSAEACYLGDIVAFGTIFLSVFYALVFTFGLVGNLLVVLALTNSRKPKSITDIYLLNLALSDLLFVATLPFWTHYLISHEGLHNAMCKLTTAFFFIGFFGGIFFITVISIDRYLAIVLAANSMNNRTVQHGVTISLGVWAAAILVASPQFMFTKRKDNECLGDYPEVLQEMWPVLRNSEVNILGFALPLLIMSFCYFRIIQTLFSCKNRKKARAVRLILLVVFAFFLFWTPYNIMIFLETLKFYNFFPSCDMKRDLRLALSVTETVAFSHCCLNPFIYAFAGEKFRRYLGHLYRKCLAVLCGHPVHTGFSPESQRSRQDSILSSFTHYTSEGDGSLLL
Briefly: Transwell BMDM migration assay with tumor supernatant and CX3CR1 blocking. Format: cell-based. The following applies: BMDMs pretreated overnight with 10 μM.

The next data set relates to B16-OVA cells. Briefly: WT vs Ythdf2-KO B16-OVA tumor growth in C57BL/6 mice with AZD8797 or liposomal clodronate. The data set is classed as in vivo, mouse. The following applies: 1 mg/kg i.p. once per day. From the text:
FIGS. 24A-24L show loss of YTHDF2 in tumor cells promotes the recruitment of CX3CR1^+ macrophage via CX3CL1. (A) Volcano plot showing the differentially expressed genes (DEGs) between WT and Ythdf2-KO MC38 tumor. DEGs with an absolute log-transformed fold change of >0.25 and adjusted P value of <0.05 (determined by two-sided Wilcoxon rank-sum test and adjusted using the Bonferroni correction) were defined as significant. […] (C) Heatmap of differential expression genes in leukocyte migration pathway between WT and Ythdf2-KO MC38 tumor cells. […] (E) The absolute number of CX3CR1^+F4/80^+CD11b^+ TAMs from WT and Ythdf2-KO B16-OVA tumors after tumor inoculation (n=3 tumors per group). (F) Schematic representation of a transwell coculture assay involving BMDMs treated with WT or Ythdf2-KO tumor supernatant. (G) Migration cell number of BMDMs induced by WT or Ythdf2-KO B16-OVA tumor cells cultured supernatants, measured with a transwell assay (n=3 samples per group). (H) Migration cell number of BMDMs induced by WT or Ythdf2-KO B16-OVA tumor cell culture supernatant with or without AZD8797, measured with a transwell assay (n=3 samples per group). […] C57BL/6 mice received either an intraperitoneal injection of AZD8797 (1 mg/kg) or an equal amount of PBS once per day for 13 days. Tumor size was measured (n=5 tumors per group). […] Tumor size was measured (n=5 tumors per group). […]

The next data set concerns B16-OVA. Briefly: B16-OVA tumor model, intra-tumoral CpG-Ythdf2 siRNA. Format: in vivo, mouse. From the text: FIGS. 7A-7G: TLR9-targeted YTHDF2 silencing in TAMs suppresses tumor growth and synergizes with anti-PD-L1 blockade. FIG. 7A: Scheme of therapeutic strategies that use CpG-Ythdf2 siRNA alone or in combination with anti-PD-L1. FIG. 7B: B16-OVA or MC38 tumor growth in mice treated with CpG-Ythdf2 siRNA, CpG-scrambled siRNA, CpG only, or PBS (n=5 per group). FIG. 7C: Percentages of tumor-infiltrating IFN-γ-producing CD8^+ T cells in B16-OVA (n=5 per group) or MC38 tumor models (n=5 for PBS group; n=3 for CpG only, CpG-Scrambled siRNA, and CpG-Ythdf2 groups) as described in FIG. 7B. For the MC38 model, tumors in the CpG only, CpG-Scrambled siRNA, and CpG-Ythdf2 groups were pooled for flow cytometry due to small tumor size (sample size after pooling n=3). FIG. 7D: B16-OVA tumor growth in mice treated with CpG-Ythdf2 siRNA, CpG-scrambled siRNA, or in combination with anti-PD-L1 (left, n=5-6 per group) and percentages of tumor-infiltrating IFN-γ-producing CD8^+ T cells (right, n=5 for CpG-scrambled siRNA plus IgG and CpG-scrambled siRNA plus anti-PD-L1 groups, n=3 for CpG-Ythdf2 siRNA plus IgG and CpG-Ythdf2 siRNA plus anti-PD-L1 groups). Tumors from the CpG-Ythdf2 siRNA plus IgG and CpG-Ythdf2 siRNA plus anti-PD-L1 groups were pooled for flow cytometry due to small tumor size (sample size after pooling n=3). FIG. 7E: IFN-γ and granzyme B production by Ly95 T cells when co-cultured with WT or YTHDF2 knock-down macrophages preloaded with NY-ESO157-c165 peptide (n=5). FIGS. 7F-7G: Colon cancer sections were immunohistochemically stained with YTHDF2 plus CD68 or CD8 alone. Dash lines outline the edge of tumor zones. Asterisk marks the stroma tissues. Representative YTHDF2^+CD68^+ high (Patient #11) and YTHDF2^+CD68^+ low (Patient #2) specimens are shown (FIG. 7F). Scale bars=100 μm. Black rows mark YTHDF2^+CD68^+ cells. Correlations between YTHDF2^+CD68^+ cells and CD8^+ T cells in the stroma area are shown (FIG. 7G: n=18 patients). Data are shown as mean SD and were analyzed with one-way ANOVA with the Holm-Šídík post-test (FIGS. 7C-7E) or two-way ANOVA with mixed-effects model (FIGS. 7B, 7D) and adjusted by the Holm-Šídík post-test or Spearman correlation (FIG. 7G). Data in FIGS. 7B-7E are representative of at least two independent experiments (*P<0.05, **P<0.01, ***P<0.001, ****P<0.0001).
Tumor models and treatments. B16-OVA (2×10^5) or MC38 cells (2×10^5) were implanted subcutaneously (s.c.) into the flank of mice. […] For the lung metastatic melanoma model, B16F10 cells (1×10^5) were injected intravenously (i.v.) into the mice. Fourteen days after injection, mice were euthanized for post-mortem analysis. Metastatic nodules in the lung were analyzed macroscopically and counted. […] To co-transfer with macrophages, B16-OVA (2×10^5) or MC38 cells (2×10^5) were mixed with an equal number of bone marrow-derived macrophages (BMDMs) from WT or Ythdf2-cKO mice and implanted s.c. into the flank of WT mice, or Rag1^−/− mice injected i.v. without or with CD3^+ T cells (5×10^6). To knock down Stat1 using siRNA, BMDMs were transfected with siGENOME mouse Stat1 siRNA (Catalog: M-058881-02-0005, Horizon) at 100 nM using lipofectamine 3000 (Invitrogen). 48 h later, cells were collected and mixed with an equal number of B16-OVA cells (2×10^5) and implanted s.c. into the flank of WT mice.
For the uptake studies, CpG-Ythdf2 siRNA (SS) was labeled using […] Cy3. In vivo delivery of CpG-Ythdf2 siRNA for treatment began when the largest diameter of the tumors reached 5-8 mm-typically 5-7 days after inoculation. Mice were injected intratumorally every other day with 5 mg/kg of CpG-Ythdf2 siRNA, CpG-scrambled siRNAs, CpG alone or PBS in a volume of 20 μL. Tumor growth was monitored every other day.

For the next data set, the system named is MC38. Briefly: MC38 tumor model, intra-tumoral CpG-Ythdf2 siRNA. The data set is classed as in vivo, mouse. An excerpt: FIGS. 7A-7G: TLR9-targeted YTHDF2 silencing in TAMs suppresses tumor growth and synergizes with anti-PD-L1 blockade. FIG. 7A: Scheme of therapeutic strategies that use CpG-Ythdf2 siRNA alone or in combination with anti-PD-L1. FIG. 7B: B16-OVA or MC38 tumor growth in mice treated with CpG-Ythdf2 siRNA, CpG-scrambled siRNA, CpG only, or PBS (n=5 per group). FIG. 7C: Percentages of tumor-infiltrating IFN-γ-producing CD8^+ T cells in B16-OVA (n=5 per group) or MC38 tumor models (n=5 for PBS group; n=3 for CpG only, CpG-Scrambled siRNA, and CpG-Ythdf2 groups) as described in FIG. 7B. For the MC38 model, tumors in the CpG only, CpG-Scrambled siRNA, and CpG-Ythdf2 groups were pooled for flow cytometry due to small tumor size (sample size after pooling n=3). […] Data are shown as mean SD and were analyzed with one-way ANOVA with the Holm-Šídík post-test (FIGS. 7C-7E) or two-way ANOVA with mixed-effects model (FIGS. 7B, 7D) and adjusted by the Holm-Šídík post-test or Spearman correlation (FIG. 7G). […]
(§1) Tumor models and treatments. […] Metastatic nodules in the lung were analyzed macroscopically and counted. […]
For the uptake studies, CpG-Ythdf2 siRNA (SS) was labeled using fluorescein Cy3. […] Tumor growth was monitored every other day.

Another data set concerns B16F10. The data set is described as follows: B16F10 lung metastasis model, intravenous CpG-Ythdf2 siRNA. The data set is classed as in vivo, mouse. On the procedure:
FIGS. 15A-15P: TLR9 expression and CpG-Ythdf2 siRNA design as well as its uptake by macrophages associated with anti-tumor effect in vivo. FIG. 15A: Violin plot showing the Tlr9 expression across 15 cell clusters from scRNA-seq data in this study. FIG. 15B: Sequence of the CpG-linked mouse Ythdf2 siRNA conjugate (CpG-Ythdf2 siRNA). FIGS. 15C-15D: BMDMs were incubated with different doses of Cy3-labeled CpG-Ythdf2 siRNA (FIG. 15C) or with 100 nM Cy3-labeled CpG-Ythdf2 siRNA for the indicated times (FIG. 15D). CpG-Ythdf2 siRNA uptake was examined by flow cytometry. Data shown are representative histograms. FIG. 15E: Cy3-labeled CpG-Ythdf2 siRNA or CpG only was injected into B16-OVA tumors of C57BL/6 mice. […] Data shown are representative histograms. FIG. 15F: mRNA levels of Ythdf2 in macrophages sorted from tumor tissues of B16-OVA-bearing mice treated with CpG-Ythdf2 siRNA or CpG-scrambled siRNA (n=3 per group). […] Median fluorescence intensity (MFI) is shown. Data are shown as mean±SD and were analyzed with an unpaired two-tailed t-test (FIGS. 15F-15I) or one-way ANOVA with the Holm-Šídík post-test (FIGS. 15J-15K) or two-way ANOVA with the mixed-effects model and adjusted by Holm-Šídík post-test (FIG. 15L). […]
as §1

The next data set has as its system Ythdf2 mRNA. The data set is described as follows: qPCR of Ythdf2 mRNA in sorted TAMs of treated B16-OVA-bearing mice. Format: in vivo, mouse. Conditions: vs CpG-scrambled siRNA group. On the procedure:
FIGS. 15A-15P: TLR9 expression and CpG-Ythdf2 siRNA design as well as its uptake by macrophages associated with anti-tumor effect in vivo. FIG. 15A: Violin plot showing the Tlr9 expression across 15 cell clusters from scRNA-seq data in this study. FIG. 15B: Sequence of the CpG-linked mouse Ythdf2 siRNA conjugate (CpG-Ythdf2 siRNA). FIGS. 15C-15D: BMDMs were incubated with different doses of Cy3-labeled CpG-Ythdf2 siRNA (FIG. 15C) or with 100 nM Cy3-labeled CpG-Ythdf2 siRNA for the indicated times (FIG. 15D). CpG-Ythdf2 siRNA uptake was examined by flow cytometry. Data shown are representative histograms. FIG. 15E: Cy3-labeled CpG-Ythdf2 siRNA or CpG only was injected into B16-OVA tumors of C57BL/6 mice. […] Median fluorescence intensity (MFI) is shown. Data are shown as mean±SD and were analyzed with an unpaired two-tailed t-test (FIGS. 15F-15I) or one-way ANOVA with the Holm-Šídík post-test (FIGS. 15J-15K) or two-way ANOVA with the mixed-effects model and adjusted by Holm-Šídík post-test (FIG. 15L). […]
Quantitative real-time RT-PCR (qPCR). RNA was isolated using an RNeasy Mini Kit (QIAGEN) and then reverse transcribed to cDNA with PrimeScript RT Reagent Kit with gDNA Eraser (Takara Bio) following the manufacturer's instructions. mRNA expression levels were analyzed using SYBR Green PCR Master Mix and a QuantStudio 12K Flex Real-Time PCR System (both from Thermo Fisher Scientific).
For orientation: In qPCR the cycle at which signal appears reflects the starting amount.

The mark [1] stands for this setting: 5 mg/kg intratumorally every other day, vs CpG-scrambled siRNA.
The mark [2] stands for this setting: intra-tumoral, vs CpG-scrambled siRNA.
The mark [3] stands for this setting: vs CpG-Ythdf2 siRNA alone or anti-PD-L1 mAb alone.

In the case of `CC(C)C[C@H](CO)Nc1nc(S[C@@H](C)c2ccccc2)nc2nc(N)sc12` [AZD8797], on CX3CR1, the “macrophage migration induced by WT vs Ythdf2-KO tumor supernatant” value was “differences in macrophage migration between WT and Ythdf2 KO groups disappeared”. For the same molecule, the “difference of tumor growth between WT and Ythdf2-KO tumor” value with B16-OVA cells was “abolished the difference of tumor growth”.

B1: CpG-Ythdf2 siRNA: Ythdf2 siRNA conjugated to TLR9 agonist CpG1668 ODN by carbon linker; SS SEQ ID NO:1-linker-SEQ ID NO:3, AS SEQ ID NO:2 (nucleic acid)
sense: TCCATGACGTTCCTGATGCT
chain: GCAAACUUGCAGUUUAUGUAU
antisense: AUACAUAAACUGCAAGUUUGCUU
modifications: carbon linker joining SEQ 1 and SEQ 3; modified_base 1..20 OTHER; phosphorothioate bond; modified_base 7 OTHER; Uracil; modified_base 8 OTHER; modified_base 13 OTHER; modified_base 14 OTHER; modified_base 15 OTHER; modified_base 17 OTHER; modified_base 19 OTHER; modified_base 21 OTHER; modified_base 1..3 OTHER; modified_base 2 OTHER; modified_base 6 OTHER; modified_base 11 OTHER; modified_base 18 OTHER; modified_base 22 OTHER; modified_base 23 OTHE
Turning to B1, the tumor growth result with B16-OVA (setting [1]) and in the data set with MC38 (setting [1]) was “significantly inhibited tumor growth” throughout. Further, the “tumor growth in Batf3 KO mice” value with B16-OVA (Batf3 KO mice lacking cDC1 cells, vs CpG-scrambled siRNA) is “still inhibited tumor growth”. Further, the “proportion of M1 TAMs” value with B16-OVA (setting [2]) is recorded as “significantly up-regulated”. Moreover, the “proportion of M2 TAMs” value in the data set with B16-OVA (setting [2]) is on record as “down-regulated”. Also, the “CD8+ cytotoxic T cell responses, combination with anti-PD-L1 antibody” value in the data set on B16-OVA (setting [3]) is reported as “increased”. Also, in the data set with B16-OVA (setting [3]), the “tumor growth, combination with anti-PD-L1 antibody” value is “reduced tumor growth”. Moreover, the “percentage of IFN-γ-producing CD8+ T cells” value is recorded as “significantly higher” in the data set with B16-OVA (vs CpG-scrambled siRNA group); “significantly higher” in the data set with MC38 (vs CpG-scrambled siRNA group); “significantly higher” with B16F10 (lung, vs CpG-scrambled siRNA group). In addition, the “tumor metastasis (lung metastatic nodules)” value with B16F10 (intravenous injection, vs CpG-scrambled siRNA) is “inhibited tumor metastasis”. Also, the “mRNA levels of Ythdf2 in sorted TAMs” value with Ythdf2 mRNA is “significantly lower”.
